US20140178390A1 (published 2014)

Tests used:
Human CXCR7 [1] = biological target: T1, Human CXCR7 (human, UniProt P25106 1-362); experiment: phage ELISA on immobilized hCXCR7 VLPs, OD 450 nm
T1 construct: see assay field; also called hCXCR7
Protocol: (§1) From all round 2 selection outputs clones were screened in phage ELISA on 2 units of immobilized CXCR7VLPs applying 10-fold dilutions of phage supernatant. […] The reaction was stopped with H₂SO₄ and the absorbance was measured at 450 nm using Sunrise TECAN spectrophotometer (TECAN). Nanobodies, showing a minimally 2-fold increased ELISA signal on hCXCR7VLPs over non-transfected control VLPs, were considered to be CXCR7 specific. CXCR7 specific Nanobodies were sequenced and redundant Nanobodies (identical AA sequence) were removed.

Human CXCR7 [2] = biological target: T1, Human CXCR7; experiment: FACS, periplasmic extract on Hek293 hCXCR7 cells
Protocol: (§2) Clones representing distinct Nanobody B-cell lineages were tested as periplasmic extracts for their binding to cell surface exposed CXCR7. In this assay, 5-fold dilutions of periplasmic extract were incubated with Hek293 hCXCR7 and Hek293 wt cells. Binding of the Nanobodies was detected using mouse anti-myc (Serotec), followed by anti-mouse IgG-PE (Jackson Immununoresearch).

Human CXCR7 [3] = biological target: T1, Human CXCR7; experiment: phage ELISA, hCXCR7 VLPs over non-transfected control VLPs
Protocol: as §1

Human CXCR7 [4] = biological target: T1, Human CXCR7; experiment: FACS, Hek293 hCXCR7 over Hek293 wt cells
Protocol: as §2

Human CXCR7 [5] = biological target: T1, Human CXCR7; experiment: [125I]-CXCL12 displacement on NIH3T3-hCXCR7 cells, relative to cold SDF-1
Protocol: (§3) After incubation, cells were washed twice, lysed with RIPA buffer and the ¹²⁵I signal was measured.

Human CXCR7 [6] = biological target: T1, Human CXCR7; experiment: [125I]-CXCL12 displacement on NIH3T3-hCXCR7 cells
Protocol: as §3

Human CXCR7 [7] = biological target: T1, Human CXCR7; experiment: competition FACS with 4 nM biotinylated SDF-1 on HEK-hCXCR7 cells
Mouse CXCR7 [8] = biological target: T2, Mouse CXCR7 (mouse, UniProt P56485 1-362); experiment: FACS on HEK293 cells transfected with pcDNA3.1-mCXCR7, 800 nM Nanobody
T2 construct: On transfected HEK293 cells; also called mCXCR7
Description: (§4) HEK293 cells transfected respectively with pcDNA3.1-hCXCR7 and pcDNA3.1-mCXCR7 were used to test cross-reactive binding of Nanobodies to mouse CXCR7 in FACS analysis. […] Nanobody binding was detected using mouse anti-myc (Serotec) and anti-mouse IgG-PE (Jackson Immunoresearch) and Mab binding by goat anti-mouse IgG-PE (Jackson Immunoresearch).

Human CXCR7 [9] = biological target: T1, Human CXCR7; experiment: FACS binding, purified protein on stable HEK-CXCR7 cells
Cynomolgus CXCR7 = biological target: T3, Cynomolgus CXCR7 (cynomolgus, UniProt P25106 1-362 (human entry)); experiment: FACS on HEK293 cells expressing cynomolgus CXCR7, 800 nM Nanobody
T3 construct: On transfected HEK293 cells; also called cCXCR7; cyno CXCR7
T3 chain: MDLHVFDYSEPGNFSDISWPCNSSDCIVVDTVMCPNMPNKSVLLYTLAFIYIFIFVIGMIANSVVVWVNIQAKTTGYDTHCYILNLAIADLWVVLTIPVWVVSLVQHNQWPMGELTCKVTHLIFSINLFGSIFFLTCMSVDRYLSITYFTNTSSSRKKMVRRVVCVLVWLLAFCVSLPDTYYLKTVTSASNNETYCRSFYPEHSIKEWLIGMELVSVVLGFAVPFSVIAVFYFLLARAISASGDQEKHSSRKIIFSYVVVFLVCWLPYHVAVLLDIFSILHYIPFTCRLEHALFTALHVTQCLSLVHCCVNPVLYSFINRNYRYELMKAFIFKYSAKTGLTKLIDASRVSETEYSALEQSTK
Protocol: as §4
Cross-reactive binding to cynomolgus CXCR7 was assessed in the same way.

Mouse CXCR7 [10] = biological target: T2, Mouse CXCR7; experiment: FACS on HEK293 cells transfected with pcDNA3.1-mCXCR7
Description: as §4

T1 sequence (P25106 whole entry): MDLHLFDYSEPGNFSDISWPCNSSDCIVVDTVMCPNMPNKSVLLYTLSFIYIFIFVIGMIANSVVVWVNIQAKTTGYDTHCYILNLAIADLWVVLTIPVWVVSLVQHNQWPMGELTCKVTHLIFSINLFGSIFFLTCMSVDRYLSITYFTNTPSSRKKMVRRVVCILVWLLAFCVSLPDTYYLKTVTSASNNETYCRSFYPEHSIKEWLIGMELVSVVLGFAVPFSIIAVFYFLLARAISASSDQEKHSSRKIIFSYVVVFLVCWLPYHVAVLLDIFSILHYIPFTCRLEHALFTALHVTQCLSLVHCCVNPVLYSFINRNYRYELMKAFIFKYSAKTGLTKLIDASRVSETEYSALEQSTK
T2 sequence (P56485 whole entry): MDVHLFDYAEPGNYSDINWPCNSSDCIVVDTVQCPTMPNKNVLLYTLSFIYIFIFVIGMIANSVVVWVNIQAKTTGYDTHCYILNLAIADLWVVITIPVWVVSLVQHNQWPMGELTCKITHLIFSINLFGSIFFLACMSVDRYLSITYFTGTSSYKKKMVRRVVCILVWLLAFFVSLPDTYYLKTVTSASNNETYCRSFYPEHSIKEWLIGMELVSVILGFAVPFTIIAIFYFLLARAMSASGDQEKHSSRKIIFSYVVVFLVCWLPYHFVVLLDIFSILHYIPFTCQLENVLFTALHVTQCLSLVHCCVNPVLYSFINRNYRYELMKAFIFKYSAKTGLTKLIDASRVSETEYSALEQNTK

B1: Nanobody 07C03 with Tag-1 (VHH)
VHH: EVQLVESGGGLVQAGESLTLSCAASGRTLSAYIMGWFRQAPGKEREFVAGIWSGGYTHLADSAKGRFSISRDNAKNTVYLQMNGLKPEDTAVYYCAAGLRGRQYSNWGQGTQVTVSS
notes: periplasmic extract in the screening FACS
B1 was tested, and the “CXCR7-LP 2U/well [OD]” value (Human CXCR7 [1]) was 0.053 OD, the “Hek-CXCR7 [MCF]” value (Human CXCR7 [2]) was 23400 MCF and the “Fold CXCR7-LP/Null-LP” value (Human CXCR7 [3]) was 4.4 fold. The “Fold Hek CXCR7/CXCR4” value (Human CXCR7 [4]) was 73.2 fold.

B2: Nanobody 07C03 with Tag-2 (VHH)
VHH: EVQLVESGGGLVQAGESLTLSCAASGRTLSAYIMGWFRQAPGKEREFVAGIWSGGYTHLADSAKGRFSISRDNAKNTVYLQMNGLKPEDTAVYYCAAGLRGRQYSNWGQGTQVTVSS
notes: Purified from E. coli periplasm
In the case of B2, the “Average SDF-1 displacement (%)” value (Human CXCR7 [5]) is reported as 78%, the Ki (Human CXCR7 [6]) is reported as 12.2 nM and the “competition relative to unlabelled SDF-1 (%)” value (Human CXCR7 [7]) is reported as > 95%. The binding result (Mouse CXCR7 [8]) was “binds”, the “Plateau [mcf]” value (Human CXCR7 [9]) was 33100 mcf and the binding result (Cynomolgus CXCR7) was “binds”.

B3: Mab 11G8 (R&D Systems) (antibody, V domains shown)
VH: EVKLVESGGDLVQPGGSLKLSCATSGFTFSDYYMFWVRQTPEKRLEWVAYITNGGDRSYYSDTVTGRFIISRDNAKNTLYLQMSRLKSEDTAMYYCARQGNWAAWFVYWGQGTLVTVSA
VL: DVLMTQTPLSLPVSLGDQASISCRSSHYIVHSDGNTYLEWYLQKPGQSPKLLIYKVSNRFSGVPDRFSGSGSGTDFTLKISRVEAEDLGIYYCFQGSHVPLTFGAGTKLELKR
In the case of B3, the “Average SDF-1 displacement (%)” value (Human CXCR7 [5]) is reported as 24% and the Ki (Human CXCR7 [6]) is reported as 4.4 nM.

B4: Nanobody 08A05 with Tag-1 (VHH)
VHH: EVQLVESGGGLVQAGDSLRLSCAASGLTFSNYDMGWFRQAPGKEREFVGASWWSGGAPYYSDSVKGRFTISRDNAKNTVYLQANSLRPEDTAVYYCAAKRLRSFASGGSYDYWGQGTQVTVSS
notes: as for B1
In the case of B4, the “CXCR7-LP 2U/well [OD]” value (Human CXCR7 [1]) is reported as 0.019 OD, the “Hek-CXCR7 [MCF]” value (Human CXCR7 [2]) is reported as 18600 MCF and the “Fold CXCR7-LP/Null-LP” value (Human CXCR7 [3]) is reported as 2.4 fold. For the same binder, the “Fold Hek CXCR7/CXCR4” value (Human CXCR7 [4]) was 60.1 fold.

B5: Nanobody 08A05 with Tag-2 (VHH)
VHH: EVQLVESGGGLVQAGDSLRLSCAASGLTFSNYDMGWFRQAPGKEREFVGASWWSGGAPYYSDSVKGRFTISRDNAKNTVYLQANSLRPEDTAVYYCAAKRLRSFASGGSYDYWGQGTQVTVSS
notes: as for B2
For B5, the “Average SDF-1 displacement (%)” value (Human CXCR7 [5]) was 77%, the Ki (Human CXCR7 [6]) was 13.6 nM and the binding result (Mouse CXCR7 [8]) was “binds”. For the same binder, the “Plateau [mcf]” value (Human CXCR7 [9]) was 28500 mcf and the binding result (Cynomolgus CXCR7) was “binds”.

B6: Nanobody 01C10 with Tag-1 (VHH)
VHH: EVQLVESGGGLVQTGASLRLSCAASGRTFSNYAMGWFRQAPGKERERVAAITPRAFTTYYADSVKGRFTISRDNAKNTAYLQMVSLKPEDTAVYYCAAQLVGSGSNLGRQESYAYWGQGTQVTVSS
With B6 the “CXCR7-LP 2U/well [OD]” value (Human CXCR7 [1]) was 0.145 OD and the “Fold CXCR7-LP/Null-LP” value (Human CXCR7 [3]) was 4.2 fold.

B7: Nanobody 01C10 with Tag-2 (VHH)
VHH: EVQLVESGGGLVQTGASLRLSCAASGRTFSNYAMGWFRQAPGKERERVAAITPRAFTTYYADSVKGRFTISRDNAKNTAYLQMVSLKPEDTAVYYCAAQLVGSGSNLGRQESYAYWGQGTQVTVSS
notes: as for B2
For B7, the “Average SDF-1 displacement (%)” value (Human CXCR7 [5]) was 31%, the Ki (Human CXCR7 [6]) was 20.7 nM and the binding result (Mouse CXCR7 [8]) was “binds”. B7: binds (Cynomolgus CXCR7).

B8: Nanobody 07B11 with Tag-1 (VHH)
VHH: EVQLVESGGNLVQAGGSLGLSCAASVSISSIHIMGWYRQAPGKQRDLVATITSGGSTAYADSVKGRFTVSKDNAKNTVYLQMDSLKPEDTSVYYCAAEVRNGVFGKWNHYWGQGTQVTVSS
notes: as for B1
B8 was tested, and the “CXCR7-LP 2U/well [OD]” value (Human CXCR7 [1]) was 0.041 OD, the “Hek-CXCR7 [MCF]” value (Human CXCR7 [2]) was 42900 MCF and the “Fold CXCR7-LP/Null-LP” value (Human CXCR7 [3]) was 4.1 fold. For the same binder, the “Fold Hek CXCR7/CXCR4” value (Human CXCR7 [4]) was 110 fold.

B9: Nanobody 07B11 with Tag-2 (VHH)
VHH: EVQLVESGGNLVQAGGSLGLSCAASVSISSIHIMGWYRQAPGKQRDLVATITSGGSTAYADSVKGRFTVSKDNAKNTVYLQMDSLKPEDTSVYYCAAEVRNGVFGKWNHYWGQGTQVTVSS
notes: as for B2
With B9 the “Average SDF-1 displacement (%)” value (Human CXCR7 [5]) was 75%, the Ki (Human CXCR7 [6]) was 96.1 nM and the binding result (Mouse CXCR7 [10]) was “no binding (tested: 800 nM)”. For the same binder, the “Plateau [mcf]” value (Human CXCR7 [9]) was 24900 mcf and the binding result (Cynomolgus CXCR7) was “binds”.

B10: Nanobody 08A10 with Tag-1 (VHH)
VHH: EVQLVESGGGLVQAGGSLRLSCAASGSIFSIAAMGWYRQATGKQRELVATITDGGTTTYADSVKGRVTISRDRSANTVYLAMNNLKPDDTAVYYCYAYLRYTSRVPGDNYWGQGTQVTVSS
notes: as for B1
B10 was tested, and the “CXCR7-LP 2U/well [OD]” value (Human CXCR7 [1]) was 0.104 OD, the “Hek-CXCR7 [MCF]” value (Human CXCR7 [2]) was 27400 MCF and the “Fold CXCR7-LP/Null-LP” value (Human CXCR7 [3]) was 17.3 fold. The “Fold Hek CXCR7/CXCR4” value (Human CXCR7 [4]) was 85.1 fold.

B11: Nanobody 08A10 with Tag-2 (VHH)
VHH: EVQLVESGGGLVQAGGSLRLSCAASGSIFSIAAMGWYRQATGKQRELVATITDGGTTTYADSVKGRVTISRDRSANTVYLAMNNLKPDDTAVYYCYAYLRYTSRVPGDNYWGQGTQVTVSS
notes: as for B2
In the case of B11, the “Average SDF-1 displacement (%)” value (Human CXCR7 [5]) is reported as 75%, the Ki (Human CXCR7 [6]) is reported as 12.1 nM and the binding result (Mouse CXCR7 [10]) is reported as “no binding (tested: 800 nM)”. The “Plateau [mcf]” value (Human CXCR7 [9]) was 34900 mcf and the binding result (Cynomolgus CXCR7) was “binds”.
